In the supplement of paper PMC10724198:
± gives the standard deviation of the averaged measurements.

Test system: Saccharomyces cerevisiae
Assay: protein stability index of tFT-peptide fusion (C-terminal peptide) (PSI (0-1 scale)); higher = more stable (slower turnover)
Details: temperature: 30 C
Experimental: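 MPS profiling in S. cerevisiae of the yeast C-terminome library: the last 12 aa of each annotated ORF are fused to the C-terminus of a sfGFP-mCherry timer, after a GGGS linker. Cells are FACS-sorted into 8 mCherry/sfGFP bins and deep-sequenced. PSI runs from 0 (unstable) to 1 (stable); wild type and das1Δ backgrounds, two technical replicates each.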

[1] = genetic background: das1 deletion

Sequence | protein stability index [1] | protein stability index (genetic background: wild type)
QLEKEGEDGLDS [IES4 C-terminal 12 aa] | 0.6881 ± 0.005 | 0.666 ± 0.043
RPSTNDPTSCCS [YPT52 C-terminal 12 aa] | 0.697 ± 0.025 | 0.705 ± 0.03
GFRPECLYYYIK [YPR016W-A C-terminal 12 aa] | 0.5801 ± 0.0036 | 0.564 ± 0.024
EKVTNTLSSLKF [LTV1 C-terminal 12 aa] | 0.694 ± 0.0074 | 0.669 ± 0.017
TSGRYASYRICM [RPB5 C-terminal 12 aa] | 0.6941 ± 0.0011 | 0.664 ± 0.011
AYECAKHFLMTY [MRS3 C-terminal 12 aa] | 0.689 ± 0.033 | 0.653 ± 0.057
FTNEIINKLSTM [IDH1 C-terminal 12 aa] | 0.692 ± 0.052 | 0.5514 ± 0.0019
YLNCTEREALRP [AEP1 C-terminal 12 aa] | 0.6794 ± 0.0038 | 0.752 ± 0.076
RLKDGSVTCIKS [HMG1 C-terminal 12 aa] | 0.7299 ± 0.0059 | 0.7 ± 0.021
TSTNTIYATVTI [DSE2 C-terminal 12 aa] | 0.688 ± 0.018 | 0.6656 ± 0.001
FRLQEEQTNMRS [MSM1 C-terminal 12 aa] | 0.713 ± 0.02 | 0.758 ± 0.02
INEFIEQSCKGE [YMR187C C-terminal 12 aa] | 0.687 ± 0.024 | 0.7 ± 0.044
NAASLIGTQQNN [DNF1 C-terminal 12 aa] | 0.709 ± 0.013 | 0.685 ± 0.013
VQLIDGPEEMHR [SHO1 C-terminal 12 aa] | 0.726 ± 0.009 | 0.663 ± 0.008
RPIFPFLIVLIS [YBR196C-A C-terminal 12 aa] | 0.16 ± 0.013 | 0.1088 ± 0.00092
RDREMVRELFRR [RSO55 C-terminal 12 aa] | 0.711 ± 0.017 | 0.692 ± 0.021
EAADEADEADEE [RPS9A C-terminal 12 aa] | 0.6914 ± 0.0068 | 0.747 ± 0.017
QQQKVLAATLEK [HVG1 C-terminal 12 aa] | 0.73 ± 0.0088 | 0.656 ± 0.012
SIRKKSKYAYAA [TPO1 C-terminal 12 aa] | 0.703 ± 0.012 | 0.642 ± 0.021
EGVVLGQRRDIV [SCP1 C-terminal 12 aa] | 0.696 ± 0.028 | 0.672 ± 0.0097
AALESEDEDDEA [CAF20 C-terminal 12 aa] | 0.685 ± 0.041 | 0.6667 ± 0.0033
VLMKQLDEIIRK [BUD14 C-terminal 12 aa] | 0.6982 ± 0.0046 | 0.704 ± 0.058
IFIFSWLGYEDS [ATG10 C-terminal 12 aa] | 0.661 ± 0.043 | 0.664 ± 0.019
KQAIYTRATASE [RPS25A C-terminal 12 aa] | 0.693 ± 0.012 | 0.687 ± 0.0034

Sequence | protein stability index [1] | protein stability index (genetic background: wild type)
YCFAKNDLFFNN [POM152 C-terminal 12 aa] | 0.743 ± 0.014 | 0.716 ± 0.011
GLEFVASRSASS [MDH2 C-terminal 12 aa] | 0.692 ± 0.014 | 0.729 ± 0.033
GVLLILASALFT [ZRT3 C-terminal 12 aa] | 0.3294 ± 0.0016 | 0.341 ± 0.0088
DNQSLPNSEKIK [CST6 C-terminal 12 aa] | 0.711 ± 0.017 | 0.7044 ± 0.0021
TKKSTGKGPASS [BOL3 C-terminal 12 aa] | 0.7 ± 0.033 | 0.675 ± 0.03
EGIETTHNKRIR [AMA1 C-terminal 12 aa] | 0.675 ± 0.018 | 0.666 ± 0.036
FFSFIITIPFMV [YNL146W C-terminal 12 aa] | 0.305 ± 0.01 | 0.2042 ± 0.0015
ALVDQLIAKYSS [ACB1 C-terminal 12 aa] | 0.703 ± 0.029 | 0.663 ± 0.042
IMTSEIVTNALR [YEL030C-A C-terminal 12 aa] | 0.70774 ± 0.00013 | 0.705 ± 0.022
TQKLNEKSSKES [ATC1 C-terminal 12 aa] | 0.715 ± 0.031 | 0.644 ± 0.036
EDGVGDPREEDE [RAD51 C-terminal 12 aa] | 0.693 ± 0.023 | 0.6258 ± 0.0013
HVDKRTKIDQEA [ISW2 C-terminal 12 aa] | 0.702 ± 0.056 | 0.681 ± 0.016
EEGQTQPEEESA [BUR6 C-terminal 12 aa] | 0.691 ± 0.0078 | 0.692 ± 0.033
CSTFAFAERLQC [YIL021C-A C-terminal 12 aa] | 0.6901 ± 0.003 | 0.642 ± 0.029
NDNHNPFYIREE [CDC26 C-terminal 12 aa] | 0.723 ± 0.021 | 0.705 ± 0.049
IVIQVNNPLTRA [DOG1 C-terminal 12 aa] | 0.66 ± 0.011 | 0.7098 ± 0.0059
RRLDDLETTMRM [SFH1 C-terminal 12 aa] | 0.66 ± 0.015 | 0.662 ± 0.029
FQVVGKKKGKRF [SYH1 C-terminal 12 aa] | 0.715 ± 0.009 | 0.688 ± 0.049
KATQAIIGYTFK [VMA13 C-terminal 12 aa] | 0.70395 ± 0.00035 | 0.71 ± 0.023
QLQLIMFGKKFK [AAC1 C-terminal 12 aa] | 0.698 ± 0.0099 | 0.717 ± 0.036
VIWEKVYESKTK [LSM8 C-terminal 12 aa] | 0.724 ± 0.018 | 0.761 ± 0.057
LFSDKMEPLFKK [AIF1 C-terminal 12 aa] | 0.746 ± 0.018 | 0.738 ± 0.012
ENAGKIFFNETE [YHR213W-A C-terminal 12 aa] | 0.733 ± 0.029 | 0.684 ± 0.033
